According to doi:10.1101/471821:
No end group written: not given here.

Molecular target: purified HLA A*03:01 class I MHC molecules
Assay: radioligand binding

Binder	IC50 [nM]
DSYIIIGVEPGQLK (not fully specified)	2000
IIIGVEPGQL (not fully specified)	> 5000
